Measured values reported in patent US20200299408A1.
pKd: −log10 of the molar value.

How the values were obtained:
[1] = target: HER2 extracellular domain (ECD) (UniProt P04626); experiment: HER2 KD relative to 4D5 (WT); assay not stated
[2] = target: human HER2 on cells (human) (UniProt P04626)
[3] = target: HER2 extracellular domain (ECD) (UniProt P04626); experiment: HER2 binding affinity of the HER2 arm; assay and form of HER2 not stated on the sheet or in the legend

Which results are given for hu4D5.v5 (bispecific antibody)?
KD fold [1]: 31.2 fold; EC50 of SKBR3 target cell killing [2]: 0.075 µg/mL; SKBR3 EC50 fold (relative to 4D5) [2]: 9900 fold; pKd [3]: 7.81
